Source: paper PMC9683861 (Journal of Molecular Biology, 2022)
Non-standard residues stand in square brackets, D forms with d. No end group written: not given here. pT = C[C@@H](OP(=O)(O)O)[C@H](N)C(=O)O; pS = N[C@@H](COP(=O)(O)O)C(=O)O

Assays:
[1] = target: T1, FITC-labeled SARS-CoV-2 N pT205 phosphopeptide WSSRGpTSPARM (SARS-CoV-2, also: FITC label, position not given here); experiment: fluorescence polarisation
T1 peptide: WSSRG[pT]SPARM

[2] = target: T2, FITC-labeled SARS-CoV-2 N pS197 phosphopeptide WSSRNpSTPGSS (SARS-CoV-2, also: FITC label, position not given here); experiment: fluorescence polarisation
T2 peptide: WSSRN[pS]TPGSS

[3] = target: T3, 14-3-3σ (1-231 aa) (75EEK77→75AAA77, Clu3) (human, UniProt P31947 1-231, 75EEK77 → 75AAA77); experiment: crystal structure
T3 sequence: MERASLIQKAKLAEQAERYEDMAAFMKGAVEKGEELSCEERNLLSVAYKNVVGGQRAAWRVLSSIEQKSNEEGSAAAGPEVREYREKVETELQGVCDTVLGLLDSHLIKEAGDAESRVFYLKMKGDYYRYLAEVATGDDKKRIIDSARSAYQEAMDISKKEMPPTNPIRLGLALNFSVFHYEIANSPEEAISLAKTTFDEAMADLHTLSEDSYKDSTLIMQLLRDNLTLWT

[4] = target: T4, 14-3-3σ (1-231 aa) (159KKE161→159AAA161, Clu1) (human, UniProt P31947 1-231, 159KKE161 → 159AAA161); experiment: crystal structure
T4 sequence: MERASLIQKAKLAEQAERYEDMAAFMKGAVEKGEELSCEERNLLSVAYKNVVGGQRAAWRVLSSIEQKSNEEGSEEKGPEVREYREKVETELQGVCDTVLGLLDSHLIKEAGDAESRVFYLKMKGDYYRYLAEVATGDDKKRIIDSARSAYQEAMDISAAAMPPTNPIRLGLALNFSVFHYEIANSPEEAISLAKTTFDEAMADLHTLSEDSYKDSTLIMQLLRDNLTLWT

B1: MBP-tagged full-length human 14-3-3 gamma (γ) (natural protein)
chain: MVDREQLVQKARLAEQAERYDDMAAAMKNVTELNEPLSNEERNLLSVAYKNVVGARRSSWRVISSIEQKTSADGNEKKIEMVRAYREKIEKELEAVCQDVLSLLDNYLIKNCSETQYESKVFYLKMKGDYYRYLAEVATGEKRATVVESSEKAYSEAHEISKEHMQPTHPIRLGLALNYSVFYYEIQNAPEQACHLAKTAFDDAIAELDTLNEDSYKDSTLIMQLLRDNLTLWTSDQQDDDGGEGNN
Q: B1 was tested. Which “KD ratio pS197 peptide / pT205 peptide (selectivity coefficient)” value [1] did it give?
A: Its value is about 7 fold.

B2: MBP-tagged full-length human 14-3-3 sigma (σ) (natural protein)
chain: MERASLIQKAKLAEQAERYEDMAAFMKGAVEKGEELSCEERNLLSVAYKNVVGGQRAAWRVLSSIEQKSNEEGSEEKGPEVREYREKVETELQGVCDTVLGLLDSHLIKEAGDAESRVFYLKMKGDYYRYLAEVATGDDKKRIIDSARSAYQEAMDISKKEMPPTNPIRLGLALNFSVFHYEIANSPEEAISLAKTTFDEAMADLHTLSEDSYKDSTLIMQLLRDNLTLWTADNAGEEGGEAPQEPQS
Q: How did the “KD ratio to the 14-3-3γ/pT205 pair” value [2] turn out when B2 was run?
A: Its value is about 10 fold.

Q: What about the “fold weaker affinity than of 14-3-3σ for the pT205 peptide” value [2] of the same binder?
A: The value was about 3 fold.

Q: Does WSSRN[pS]TPGSS [Unlabeled SARS-CoV-2 N pS197 phosphopeptide WSSRNpSTPGSS] bind [3]?
A: Result: binds

Q: Does WSSRG[pT]SPARM [Unlabeled SARS-CoV-2 N pT205 phosphopeptide WSSRGpTSPARM] bind [4]?
A: Result: binds
